In patent US11833215B2, “CKIT antibody drug conjugates” (Novartis AG, priority 2014, dated 2023):
Entries after “also recorded” stand apart in the source; their conditions may differ.

Experiments:
mouse cKIT = biological target: T1, mouse cKIT (Mus musculus, UniProt P05532); assay: SPR (Biacore) affinity measurement; format: binding; conditions: 25° C., 1:1 model
T1 construct: cKIT receptor extracellular domains (ECD) were diluted in a 2-fold series
T1 sequence (P05532 25-527 limits assumed): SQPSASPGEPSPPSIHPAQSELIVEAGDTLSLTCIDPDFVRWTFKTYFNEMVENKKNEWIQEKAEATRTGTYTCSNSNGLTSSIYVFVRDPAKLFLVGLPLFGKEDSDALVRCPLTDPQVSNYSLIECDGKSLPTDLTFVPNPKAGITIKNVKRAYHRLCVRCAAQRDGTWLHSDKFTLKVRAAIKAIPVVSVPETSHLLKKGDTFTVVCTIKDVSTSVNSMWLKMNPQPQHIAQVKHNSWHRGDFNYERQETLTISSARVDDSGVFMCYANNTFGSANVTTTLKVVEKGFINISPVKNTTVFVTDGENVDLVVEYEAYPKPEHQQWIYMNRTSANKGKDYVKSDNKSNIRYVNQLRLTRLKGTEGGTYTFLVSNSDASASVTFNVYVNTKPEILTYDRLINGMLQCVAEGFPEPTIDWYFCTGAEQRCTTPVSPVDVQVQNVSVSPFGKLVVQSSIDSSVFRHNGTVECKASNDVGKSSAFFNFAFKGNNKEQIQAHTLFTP
Protocol: (§1) Affinity of the antibodies to cKIT species orthologues and also to cKIT was determined using SPR technology using a Biacore® 2000 instrument (GE Healthcare, Pittsburgh, PA) and with CM5 sensor chips.
(§2) Briefly, HBS-P (0.01 M HEPES, pH 7.4, 0.15 M NaCl, 0.005% Surfactant P20) supplemented with 2% Odyssey® blocking buffer (Li-Cor Biosciences, Lincoln, NE) was used as the running buffer for all the experiments. The immobilization level and analyte interactions were measured by response unit (RU). Pilot experiments were performed to test and confirm the feasibility of the immobilization of the anti-human Fc antibody (Catalog number BR100839, GE Healthcare, Pittsburgh, PA) and the capture of the test antibodies.
(§3) For kinetic measurements, the experiments were performed in which the antibodies were captured to the sensor chip surface via the immobilized anti-human Fc antibody and the ability of the cKIT proteins to bind in free solution was determined. Briefly, 25 μg/ml of anti-human Fc antibody at pH 5 was immobilized on a CM5 sensor chip through amine coupling at flow rate of 5 μl/minute on all two flow cells to reach 10,500 RUs. 0.1-1 μg/ml of test antibodies were then injected at 10 μl/min for 1 minute. Captured levels of the antibodies were generally kept below 200 RUs. Subsequently, 3.125 −50 nM of cKIT receptor extracellular domains (ECD) were diluted in a 2-fold series and injected at a flow rate of 40 μl/min for 3 min over both reference and test flow cells. Table of tested ECDs is listed below (Table 6). Dissociation of the binding was followed for 10 min. After each injection cycle, the chip surface was regenerated with 3 M MgCl2 at 10 μl/min for 30 seconds.

human cKIT = biological target: T2, human cKIT (Homo sapiens, UniProt P10721); assay: SPR (Biacore) affinity measurement; format: binding; conditions: 25° C., 1:1 model
T2 construct: Human cKIT tr. variant 2 , residues 26-520-TAG; made in house; host or cells: HEK293 derived cell line 293FS, transient transfection
T2 sequence (P10721 with tags, fused parts or gaps isoform P10721-2): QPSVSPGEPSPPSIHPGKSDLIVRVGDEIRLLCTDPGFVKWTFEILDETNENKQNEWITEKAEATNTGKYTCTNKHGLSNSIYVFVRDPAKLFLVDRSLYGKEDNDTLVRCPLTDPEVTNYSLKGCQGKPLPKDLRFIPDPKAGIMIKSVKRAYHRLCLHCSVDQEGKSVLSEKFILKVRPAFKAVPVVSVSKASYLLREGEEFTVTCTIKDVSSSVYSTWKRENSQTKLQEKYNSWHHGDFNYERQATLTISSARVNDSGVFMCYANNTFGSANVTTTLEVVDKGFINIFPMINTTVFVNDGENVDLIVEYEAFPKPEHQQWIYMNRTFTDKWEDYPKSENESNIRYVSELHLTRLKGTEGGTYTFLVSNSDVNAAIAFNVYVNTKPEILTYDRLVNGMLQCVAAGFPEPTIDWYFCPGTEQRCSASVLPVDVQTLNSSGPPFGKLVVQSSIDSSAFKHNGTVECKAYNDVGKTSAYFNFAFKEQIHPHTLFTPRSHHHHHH
Protocol: as §1, §2, §3

rat cKIT = assay: SPR (Biacore) affinity measurement; format: binding; conditions: 25° C., 1:1 model
Chain of rat cKIT (as listed by the source): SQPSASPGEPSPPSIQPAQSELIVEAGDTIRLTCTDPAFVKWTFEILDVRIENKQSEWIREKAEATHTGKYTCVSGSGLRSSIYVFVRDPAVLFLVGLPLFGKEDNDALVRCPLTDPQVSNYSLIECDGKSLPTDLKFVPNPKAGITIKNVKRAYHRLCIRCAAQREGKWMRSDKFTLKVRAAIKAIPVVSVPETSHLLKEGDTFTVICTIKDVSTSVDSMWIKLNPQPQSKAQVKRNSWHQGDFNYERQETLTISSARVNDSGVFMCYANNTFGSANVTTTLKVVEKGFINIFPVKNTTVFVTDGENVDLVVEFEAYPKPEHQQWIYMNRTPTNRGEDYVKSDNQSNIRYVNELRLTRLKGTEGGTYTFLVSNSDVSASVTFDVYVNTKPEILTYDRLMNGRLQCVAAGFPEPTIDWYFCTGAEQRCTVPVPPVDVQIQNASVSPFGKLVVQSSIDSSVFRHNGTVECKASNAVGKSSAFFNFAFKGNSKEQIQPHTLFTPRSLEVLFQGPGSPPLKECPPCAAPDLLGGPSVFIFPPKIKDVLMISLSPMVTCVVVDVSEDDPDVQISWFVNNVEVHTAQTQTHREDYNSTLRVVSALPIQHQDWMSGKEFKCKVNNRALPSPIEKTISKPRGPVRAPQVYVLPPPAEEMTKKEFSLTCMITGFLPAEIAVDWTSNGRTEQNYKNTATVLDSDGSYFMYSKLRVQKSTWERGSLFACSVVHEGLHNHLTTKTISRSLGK
Protocol: as §1, §2, §3

[1] = tested on: cKIT on normal human CD34+ bone marrow cells; assay: cKIT receptor internalization on bone marrow cells by flow cytometry; format: cell-based; conditions: 10 μg/ml, 37° C.
Protocol: In another internalization experiment, the impact of NEG085 on cKIT receptor levels was evaluated on human bone marrow cells. Normal human CD34+ bone marrow cells (All Cells, Cat #ABM022F, Emeryville, CA) were thawed and washed with 10 mL of StemPro®-34 SFM medium (Gibco, Life Technologies, Carlsbad, CA). Cells were resuspended in 1.25 mL of StemPro-34 SFM medium at 4×10^5 cells/mL and split equally into two tubes. One tube was untreated, and the other was treated with 10 μg/ml of NEG085 and both were incubated at 37° C., 5% CO2. 100 μL of cell suspension was collected at each timepoint (0, 15, 30, 60, 120, and 240 min) from each condition, and placed into an ice cold collection tube to cease internalization. Cells were washed with 3 mL of ice-cold FBS stain buffer and resuspended in 100 μL of FBS stain buffer. […] of 104D2-BV421 (mouse anti-human IgG1 k, Biolegend, San Diego CA) was added to each tube and incubated on ice for 1 hour. Following another wash with FBS stain buffer, total cKIT receptors were measured by flow cytometry by assessing the mean fluorescence intensity of BV421 on a FACS Canto II® (BD Biosciences, San Jose, CA).

Uke-1 cells = assay: ADCC activity in vitro (Calcein release, NK3.3 effector cells); format: cell-based; conditions: unconjugated IgG1, effector to target ratio 20 to 1
Protocol: The ability of the unconjugated anti-cKIT antibodies (NEG085, 20376) to mediate antibody dependent cellular cytotoxicity was determined versus Uke-1 cells (target cells; generously provided by Professor Walter Fiedler, University Hospital Eppendorf, Hamburg, Germany) in co-incubation with NK3.3 cells (killer cells or effector cells; kindly provided by Jacky Kornbluth from Saint Louis University). […] In order to calculate the antibody specific lysis of the target cells, a parallel incubation of target cells only without antibody or effector cells served as a baseline and negative control, whereas the positive control or maximal lysis or hundred percent specific lysis was determined by lysis of target cells only with a 1% Triton-X 100 solution. […] Following a co-incubation of target and effector cells, the microtiterplate was centrifuged and an aliquot of the supernatant fluid was transferred to another microtiterplate (96 well, flat-bottomed, black with clear bottom; (Corning Costar, catalog #3904, Tewksbury, MA) and the concentration of free Calcein in solution was determined with a fluorescence counter (Victor 3 ® multilabel counter, Perkin Elmer, Waltham, MA).

B1: NEG085: anti-cKIT antibody of Table 3, VH SEQ ID NO 82, VL SEQ ID NO 91 (antibody, listed as Homo sapiens, V domains shown)
VH: EVQLVESGGGLVQPGGSLRLSCAASGFAFSGYYMAWVRQAPGKGLEWVANINYPGSSTYYLDSVKGRFTISRDNAKNSLYLQMNSLRAEDTAVYYCARGDYYGTTYWYFDVWGQGTTVTVSS
VL: DIQMTQSPSSLSASVGDRVTITCRASQSISSYLNWYQQKPGKAPKLLIYYTSRLQSGVPSRFSGSGSGTDFTLTISSLQPEDFATYYCQQGRRLWSFGGGTKVEIK
Affinity mouse cKIT (nM) (mouse cKIT): Not reactive | Affinity human cKIT (nM) (human cKIT): nanomolar level | Affinity to rat cKIT (nM) (rat cKIT): Not reactive | time of bulk of cKIT internalization [1]: 15 min | internalization of cKIT on human bone marrow cells ([1]; 0-240 min): mediate rapid internalization; also recorded: rapidly internalized | ADCC killing of target cells (Uke-1 cells): do not induce ADCC; also recorded: not able to induce ADCC
